Measurements: the supplement of paper PMC10724198
± gives the standard deviation of the averaged measurements.

Tested on: Saccharomyces cerevisiae
Test: protein stability index of tFT-peptide fusion (C-terminal peptide) (PSI (0-1 scale)); higher = more stable (slower turnover)
Settings: genetic background: wild type; temperature: 30 C
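Note: PSI is a weighted mean of sequencing reads over stability bins, variants kept only with over 10 reads, mCherry proximal and sfGFP distal, peptide attached via GGGS linker.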

Sequence | protein stability index
QKRIALNSQKNT | 0.688 ± 0.048
DMAVYLVSVSRV | 0.609 ± 0.053
DTFVFSWGVGWG | 0.76 ± 0.041
GRGRWRSVYLRG | 0.622 ± 0.0078
EGRGKGKKKKTH | 0.7 ± 0.036
MSSGGSIYMVRT | 0.723 ± 0.018
SFITFGGWLGGM | 0.705 ± 0.14
GMKDKSVRTIKK | 0.721 ± 0.0035
GGEVFGGRCSAV | 0.734 ± 0.12
TEKTEAKNCNTK | 0.697 ± 0.0089
CSLCILSWTFPS | 0.6464 ± 0.0026
SLASCLLRPPLY | 0.693 ± 0.021
REMKGKLHEHRK | 0.6792 ± 0.0029
PLLLLFLSLFRR | 0.63 ± 0.023
SVSNSRCGRLML | 0.71 ± 0.046
EFVGSCPLCNTF | 0.622 ± 0.015
VLRFHIRRTQQQ | 0.707 ± 0.012
ASLVSPSFLGLV | 0.677 ± 0.084
SSWEMMLYRLTE | 0.693 ± 0.021
APGWNNMALDVD | 0.728 ± 0.021
GSPLASSPSVID | 0.704 ± 0.041
LALHPPPRVPPT | 0.701 ± 0.036
SLFPPAPPPPRS | 0.641 ± 0.098
CRATYVGTGGRG | 0.656 ± 0.016
TALSPPVPTLPP | 0.7 ± 0.013
QVRTWGGCWGRG | 0.674 ± 0.0083

Sequence | protein stability index
GGRGRGARPGGR | 0.647 ± 0.027
ERKESKSRKVER | 0.726 ± 0.081
GKSLIKRYANKI | 0.7436 ± 0.0019
NTDPAKRNHPRK | 0.71379 ± 0.00067
SRRSVVRPPCIG | 0.656 ± 0.056
DTCWHELILAFS | 0.592 ± 0.087
AGAGLGGVLGWW | 0.671 ± 0.02
ASQPNRIPSPPR | 0.71 ± 0.01
KTKKYIQKNKKR | 0.773 ± 0.012
DLTGKGCIYMER | 0.702 ± 0.034
GSLLSEERGRYW | 0.75 ± 0.026
KKKKKIHIKNKK | 0.707 ± 0.052
PSYTSYFVGLST | 0.48 ± 0.11
PPSYYPPPYLAF | 0.653 ± 0.034
YYPLLLASQLPI | 0.735 ± 0.0041
CGRITADKRILL | 0.65 ± 0.098
HGCRLCFISSWL | 0.663 ± 0.0057
PFPSYLSPLGPS | 0.734 ± 0.037
EGGWRYNRNGPN | 0.687 ± 0.025
VCRLLASCFWRL | 0.655 ± 0.035
SCTPPLPFFTSF | 0.704 ± 0.028
EYFKTKQKKKKE | 0.753 ± 0.12
LLTGCVPVLIRK | 0.707 ± 0.093
DLPSSPCSYFRR | 0.616 ± 0.034
CSFSRRLCHRPT | 0.701 ± 0.013
VVGVCLDIVCSP | 0.519 ± 0.013

Sequence | protein stability index
GGGWCESRGDGA | 0.655 ± 0.085
VGFSLGGFLFLF | 0.585 ± 0.096
GVCRGSRVGLVP | 0.714 ± 0.025
SGPYPVGKQRSE | 0.649 ± 0.05
GASVWGRGTRKI | 0.6902 ± 0.0059
REERSRQSLVKW | 0.675 ± 0.06
RGGASGPFVWAG | 0.71 ± 0.057
SVSPRVSSLSPL | 0.671 ± 0.013
KKKETKKENKKK | 0.723 ± 0.034
VPPGVVSSPCPN | 0.661 ± 0.056
PSWLPLPLLFLV | 0.416 ± 0.18
PPPAPPCRLMSP | 0.719 ± 0.059
RFGRGAGGGLGG | 0.6763 ± 0.0013
DVVFVARGRAND | 0.7002 ± 0.0037
LLTCRPPQCLLC | 0.6303 ± 0.0038
VVRQADVLLGLV | 0.662 ± 0.019
LPSLSSFALHMP | 0.685 ± 0.018
GEQGAPLSIRYS | 0.622 ± 0.021
NLTKTLNNDIIK | 0.68183 ± 0.00011
SPARPPFPPPPL | 0.72 ± 0.029
PLPPPRFPPPRL | 0.68 ± 0.12
LPPPPFPPPKPF | 0.683 ± 0.0084
WQWDMESKRKKE | 0.7056 ± 0.0026
VESRVVGGGGDW | 0.683 ± 0.047
KKKKGNKKRREK | 0.731 ± 0.0083
RPDRPSGLLPRP | 0.701 ± 0.039

Sequence | protein stability index
EIRGGDMGEWRE | 0.715 ± 0.027
KAEEKARGEDWQ | 0.681 ± 0.05
PSIPRTTLLSCN | 0.607 ± 0.037
HGTRPFLAPMTP | 0.672 ± 0.0092
LVGIYYEHPISP | 0.754 ± 0.13
GGGLRGVGGLGR | 0.602 ± 0.044
VGGGRRGGVGEG | 0.652 ± 0.021
KSLRLFSVLSFV | 0.627 ± 0.016
FNHYPSPPQRFY | 0.685 ± 0.072
ALLPPPCFFLLP | 0.673 ± 0.0041
RFCIARGSLLDY | 0.554 ± 0.025
PVAPKPTGAKTP | 0.661 ± 0.06
GGGSGGVVGGIS | 0.674 ± 0.018
FACAGPAAFHSL | 0.597 ± 0.014
GVFGLMVGWGWA | 0.665 ± 0.083
TWANKRIGRRKE | 0.778 ± 0.039
FILERSLLSLQG | 0.678 ± 0.18
PPGLRSYACCRN | 0.7615 ± 0.0046
GWLCARGSSSRP | 0.649 ± 0.0067
PRPHPPPLPCPP | 0.714 ± 0.04
PVPPLPPRPPPL | 0.619 ± 0.11
LAAGPSERTART | 0.685 ± 0.052
LSFHSYLSPFYL | 0.664 ± 0.051
